B1: GpH7-B3 variant T335_02A/GpL16-k0 (antibody, human IgG1, kappa)
heavy: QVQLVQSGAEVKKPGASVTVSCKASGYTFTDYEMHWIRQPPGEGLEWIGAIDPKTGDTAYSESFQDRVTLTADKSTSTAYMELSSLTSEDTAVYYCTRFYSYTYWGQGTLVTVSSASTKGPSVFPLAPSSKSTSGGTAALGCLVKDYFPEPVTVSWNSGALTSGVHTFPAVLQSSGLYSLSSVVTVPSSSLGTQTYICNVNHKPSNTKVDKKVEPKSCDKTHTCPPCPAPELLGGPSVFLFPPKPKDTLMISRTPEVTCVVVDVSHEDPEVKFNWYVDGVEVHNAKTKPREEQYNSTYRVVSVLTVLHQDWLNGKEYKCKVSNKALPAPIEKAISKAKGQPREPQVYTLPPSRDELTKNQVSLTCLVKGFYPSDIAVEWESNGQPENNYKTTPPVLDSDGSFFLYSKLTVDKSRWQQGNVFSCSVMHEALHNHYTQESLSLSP
light: DIVMTQSPLSLPVTPGEPASISCQASESLVHSNRNTYLHWYLQKPGQSPQLLIYKVSNRFSGVPDRFSGSGSGTDFTLKISRVEAEDVGVYYCSQNTHVPPTFGQGTKVEIERTVAAPSVFIFPPSDEQLKSGTASVVCLLNNFYPREAKVQWKVDNALQSGNSQESVTEQDSKDSTYSLSSTLTLSKADYEKHKVYACEVTHQGLSSPVTKSFNRGEC
notes: also called Ho Ab
B2: GpH7-A5/GpH7-B3 variant S337_02A/GpL16-k0 (antibody, human IgG1, kappa)
heavy 1: not shown
heavy 2: not shown
light: B1 light
notes: also called He Ab
B3: GpH7-A5/GpH7-B3 variant P331_06M/GpL16-k0 (antibody, human IgG1, kappa)
heavy 1: not shown
heavy 2: not shown
light: B1 light
notes: also called He Ab
B4: GpH7-B3 variant Y296_16H/GpL16-k0 (antibody, human IgG1, kappa)
heavy: not shown
light: B1 light
notes: also called Ho Ab
B5: GpH7-B3 variant T335_05P/GpL16-k0 (antibody, human IgG1, kappa)
heavy: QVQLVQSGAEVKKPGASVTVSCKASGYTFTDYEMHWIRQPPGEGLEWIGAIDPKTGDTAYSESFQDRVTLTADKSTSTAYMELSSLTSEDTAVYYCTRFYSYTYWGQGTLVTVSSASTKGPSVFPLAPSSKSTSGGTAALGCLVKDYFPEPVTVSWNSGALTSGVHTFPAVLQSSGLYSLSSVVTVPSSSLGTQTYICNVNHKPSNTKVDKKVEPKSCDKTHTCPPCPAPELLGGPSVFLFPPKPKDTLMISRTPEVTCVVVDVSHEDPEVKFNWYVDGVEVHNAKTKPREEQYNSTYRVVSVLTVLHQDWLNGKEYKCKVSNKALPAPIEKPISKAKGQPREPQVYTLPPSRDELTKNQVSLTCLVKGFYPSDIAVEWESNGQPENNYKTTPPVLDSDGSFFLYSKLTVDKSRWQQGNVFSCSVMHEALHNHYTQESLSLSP
light: B1 light
notes: also called Ho Ab
B6: GpH7-A5/GpH7-B3 variant P331_13S/GpL16-k0 (antibody, human IgG1, kappa)
heavy 1: not shown
heavy 2: not shown
light: B1 light
notes: also called He Ab
B7: GpH7-B3 variant T335_12R/GpL16-k0 (antibody, human IgG1, kappa)
heavy: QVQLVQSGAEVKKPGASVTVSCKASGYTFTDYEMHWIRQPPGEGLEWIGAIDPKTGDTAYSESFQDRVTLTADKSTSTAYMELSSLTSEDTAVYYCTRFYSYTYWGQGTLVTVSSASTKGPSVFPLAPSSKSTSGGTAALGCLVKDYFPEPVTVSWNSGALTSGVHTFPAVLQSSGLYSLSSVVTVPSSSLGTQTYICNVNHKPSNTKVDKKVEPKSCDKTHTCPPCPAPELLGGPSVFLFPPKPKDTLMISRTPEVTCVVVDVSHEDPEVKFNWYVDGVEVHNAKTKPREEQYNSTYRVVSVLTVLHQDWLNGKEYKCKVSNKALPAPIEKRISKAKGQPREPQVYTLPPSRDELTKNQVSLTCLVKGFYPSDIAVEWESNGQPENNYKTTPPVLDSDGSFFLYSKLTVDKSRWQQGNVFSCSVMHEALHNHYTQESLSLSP
light: B1 light
notes: also called Ho Ab
B8: GpH7-A5/GpH7-B3 variant S239_08L/GpL16-k0 (antibody, human IgG1, kappa)
heavy 1: not shown
heavy 2: not shown
light: B1 light
notes: also called He Ab
B9: GpH7-B3 variant Y296_10E/GpL16-k0 (antibody, human IgG1, kappa)
heavy: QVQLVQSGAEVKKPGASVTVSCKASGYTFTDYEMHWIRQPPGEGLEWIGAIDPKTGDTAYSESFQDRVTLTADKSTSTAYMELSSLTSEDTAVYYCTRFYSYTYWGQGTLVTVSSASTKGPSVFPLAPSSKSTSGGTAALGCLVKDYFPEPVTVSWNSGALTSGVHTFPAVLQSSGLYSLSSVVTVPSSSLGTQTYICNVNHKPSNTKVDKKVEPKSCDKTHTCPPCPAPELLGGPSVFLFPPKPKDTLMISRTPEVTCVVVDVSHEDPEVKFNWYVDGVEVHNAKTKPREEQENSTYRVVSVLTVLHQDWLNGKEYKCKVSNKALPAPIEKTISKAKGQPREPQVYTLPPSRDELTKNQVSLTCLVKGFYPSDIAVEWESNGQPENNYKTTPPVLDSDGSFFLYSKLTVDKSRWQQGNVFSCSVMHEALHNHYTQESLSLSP
light: B1 light
notes: also called Ho Ab
B10: GpH7-B3 variant T335_16H/GpL16-k0 (antibody, human IgG1, kappa)
heavy: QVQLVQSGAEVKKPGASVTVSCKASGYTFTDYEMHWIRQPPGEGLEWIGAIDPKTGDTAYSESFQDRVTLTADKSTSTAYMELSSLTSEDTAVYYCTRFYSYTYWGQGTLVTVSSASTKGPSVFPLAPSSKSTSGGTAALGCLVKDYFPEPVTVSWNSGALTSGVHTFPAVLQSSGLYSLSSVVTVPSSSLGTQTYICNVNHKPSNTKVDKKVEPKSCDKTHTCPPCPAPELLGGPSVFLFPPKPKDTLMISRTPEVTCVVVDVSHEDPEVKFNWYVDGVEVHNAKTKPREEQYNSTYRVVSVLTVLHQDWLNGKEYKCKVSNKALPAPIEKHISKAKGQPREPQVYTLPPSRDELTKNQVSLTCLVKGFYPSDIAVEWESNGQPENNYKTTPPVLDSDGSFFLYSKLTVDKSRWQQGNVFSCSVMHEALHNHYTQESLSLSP
light: B1 light
notes: also called Ho Ab
B11: GpH7-A5/GpH7-B3 variant Q295_10E/GpL16-k0 (antibody, human IgG1, kappa)
heavy 1: not shown
heavy 2: not shown
light: B1 light
notes: also called He Ab
B12: GpH7-A5/GpH7-B3 variant S239_05P/GpL16-k0 (antibody, human IgG1, kappa)
heavy 1: not shown
heavy 2: not shown
light: B1 light
notes: also called He Ab
B13: GpH7-B3 variant Y296_06M/GpL16-k0 (antibody, human IgG1, kappa)
heavy: not shown
light: B1 light
notes: also called Ho Ab
B14: GpH7-B3 variant Y296_20W/GpL16-k0 (antibody, human IgG1, kappa)
heavy: not shown
light: B1 light
notes: also called Ho Ab
B15: GpH7-B3 variant Y296_04F/GpL16-k0 (antibody, human IgG1, kappa)
heavy: not shown
light: B1 light
notes: also called Ho Ab
B16: GpH7-B3 variant Y296_07I/GpL16-k0 (antibody, human IgG1, kappa)
heavy: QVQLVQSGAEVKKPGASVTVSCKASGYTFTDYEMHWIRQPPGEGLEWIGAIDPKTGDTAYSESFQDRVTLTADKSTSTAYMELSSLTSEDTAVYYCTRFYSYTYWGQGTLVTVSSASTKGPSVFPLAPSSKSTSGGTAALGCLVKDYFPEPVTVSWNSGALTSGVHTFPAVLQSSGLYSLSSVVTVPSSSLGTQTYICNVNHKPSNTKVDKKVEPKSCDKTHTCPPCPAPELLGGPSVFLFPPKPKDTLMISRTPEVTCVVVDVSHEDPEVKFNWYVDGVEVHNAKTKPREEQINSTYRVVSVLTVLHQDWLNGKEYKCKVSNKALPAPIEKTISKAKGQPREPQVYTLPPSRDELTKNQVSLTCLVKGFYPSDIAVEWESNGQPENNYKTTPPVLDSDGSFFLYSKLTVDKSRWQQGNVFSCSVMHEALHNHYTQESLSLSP
light: B1 light
notes: also called Ho Ab
B17: GpH7-A5/GpH7-B3 variant P331_18N/GpL16-k0 (antibody, human IgG1, kappa)
heavy 1: not shown
heavy 2: not shown
light: B1 light
notes: also called He Ab
B18: GpH7-A5/GpH7-B3 variant P331_16H/GpL16-k0 (antibody, human IgG1, kappa)
heavy 1: not shown
heavy 2: not shown
light: B1 light
notes: also called He Ab
B19: GpH7-A5/GpH7-B3 variant P331_10E/GpL16-k0 (antibody, human IgG1, kappa)
heavy 1: not shown
heavy 2: not shown
light: B1 light
notes: also called He Ab
B20: GpH7-B3 variant T335_13S/GpL16-k0 (antibody, human IgG1, kappa)
heavy: not shown
light: B1 light
notes: also called Ho Ab
B21: GpH7-B3 variant Y296_09D/GpL16-k0 (antibody, human IgG1, kappa)
heavy: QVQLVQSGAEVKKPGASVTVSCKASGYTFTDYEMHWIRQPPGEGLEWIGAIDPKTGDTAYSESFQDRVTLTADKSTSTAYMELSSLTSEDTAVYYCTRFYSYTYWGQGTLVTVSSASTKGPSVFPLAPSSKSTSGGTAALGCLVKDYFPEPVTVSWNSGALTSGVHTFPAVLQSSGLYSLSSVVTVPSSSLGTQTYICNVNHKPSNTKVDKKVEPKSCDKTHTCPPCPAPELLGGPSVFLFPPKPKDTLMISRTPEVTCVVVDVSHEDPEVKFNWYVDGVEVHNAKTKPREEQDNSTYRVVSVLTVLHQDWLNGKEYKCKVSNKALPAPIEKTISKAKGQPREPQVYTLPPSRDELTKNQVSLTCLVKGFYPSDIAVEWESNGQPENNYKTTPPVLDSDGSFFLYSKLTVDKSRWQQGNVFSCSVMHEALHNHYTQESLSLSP
light: B1 light
notes: also called Ho Ab
B22: GpH7-B3 variant T335_10E/GpL16-k0 (antibody, human IgG1, kappa)
heavy: not shown
light: B1 light
notes: also called Ho Ab
B23: GpH7-A5/GpH7-B3 variant S239_14T/GpL16-k0 (antibody, human IgG1, kappa)
heavy 1: not shown
heavy 2: not shown
light: B1 light
notes: also called He Ab
B24: GpH7-B3 variant T335_07I/GpL16-k0 (antibody, human IgG1, kappa)
heavy: not shown
light: B1 light
notes: also called Ho Ab
B25: GpH7-A5/GpH7-B3 variant S239_07I/GpL16-k0 (antibody, human IgG1, kappa)
heavy 1: not shown
heavy 2: not shown
light: B1 light
notes: also called He Ab
B26: GpH7-A5/GpH7-B3 variant S239_06M/GpL16-k0 (antibody, human IgG1, kappa)
heavy 1: not shown
heavy 2: not shown
light: B1 light
notes: also called He Ab
B27: GpH7-B3 variant Y296_18N/GpL16-k0 (antibody, human IgG1, kappa)
heavy: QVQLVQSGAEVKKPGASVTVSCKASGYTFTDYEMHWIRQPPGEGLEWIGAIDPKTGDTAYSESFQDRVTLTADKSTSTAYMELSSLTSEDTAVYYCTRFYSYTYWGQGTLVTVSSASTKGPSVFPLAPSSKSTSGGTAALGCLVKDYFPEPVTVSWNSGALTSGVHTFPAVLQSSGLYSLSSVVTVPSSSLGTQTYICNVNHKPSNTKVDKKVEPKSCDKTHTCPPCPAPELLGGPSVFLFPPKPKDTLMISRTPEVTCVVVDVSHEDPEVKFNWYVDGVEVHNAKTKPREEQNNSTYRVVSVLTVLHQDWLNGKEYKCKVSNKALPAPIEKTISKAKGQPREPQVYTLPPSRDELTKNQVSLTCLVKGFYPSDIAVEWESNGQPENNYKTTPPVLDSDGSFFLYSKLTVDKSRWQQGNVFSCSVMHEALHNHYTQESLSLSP
light: B1 light
notes: also called Ho Ab
B28: GpH7-B3 variant Y296_19Q/GpL16-k0 (antibody, human IgG1, kappa)
heavy: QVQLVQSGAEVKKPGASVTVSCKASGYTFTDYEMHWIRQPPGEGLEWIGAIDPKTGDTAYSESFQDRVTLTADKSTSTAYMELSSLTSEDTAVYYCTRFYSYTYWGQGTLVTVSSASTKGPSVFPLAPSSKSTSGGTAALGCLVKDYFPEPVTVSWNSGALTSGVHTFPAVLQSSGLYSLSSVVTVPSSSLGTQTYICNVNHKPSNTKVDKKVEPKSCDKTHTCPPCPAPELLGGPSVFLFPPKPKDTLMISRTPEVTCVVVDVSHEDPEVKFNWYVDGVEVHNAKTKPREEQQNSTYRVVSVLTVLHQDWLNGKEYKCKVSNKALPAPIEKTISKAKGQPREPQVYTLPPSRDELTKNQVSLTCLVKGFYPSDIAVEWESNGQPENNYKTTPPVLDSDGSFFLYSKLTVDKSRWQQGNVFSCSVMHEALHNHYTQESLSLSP
light: B1 light
notes: also called Ho Ab
B29: GpH7-B3 variant Y300_18N/GpL16-k0 (antibody, human IgG1, kappa)
heavy: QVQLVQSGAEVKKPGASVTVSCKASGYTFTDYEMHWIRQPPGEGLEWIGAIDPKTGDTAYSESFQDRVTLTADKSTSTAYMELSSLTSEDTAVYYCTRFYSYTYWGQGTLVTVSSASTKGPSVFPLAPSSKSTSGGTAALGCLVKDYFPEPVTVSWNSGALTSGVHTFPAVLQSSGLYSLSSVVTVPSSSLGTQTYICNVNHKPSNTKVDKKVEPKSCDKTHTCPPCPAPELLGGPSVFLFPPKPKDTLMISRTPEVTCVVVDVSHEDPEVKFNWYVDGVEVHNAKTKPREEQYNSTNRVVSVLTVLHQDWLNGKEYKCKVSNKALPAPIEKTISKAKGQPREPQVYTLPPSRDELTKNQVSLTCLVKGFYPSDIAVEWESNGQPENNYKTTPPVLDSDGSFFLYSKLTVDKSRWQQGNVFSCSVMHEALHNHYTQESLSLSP
light: B1 light
notes: also called Ho Ab
B30: GpH7-B3 variant T335_15Y/GpL16-k0 (antibody, human IgG1, kappa)
heavy: not shown
light: B1 light
notes: also called Ho Ab
B31: GpH7-A5/GpH7-B3 variant P331_20W/GpL16-k0 (antibody, human IgG1, kappa)
heavy 1: not shown
heavy 2: not shown
light: B1 light
notes: also called He Ab
B32: GpH7-B3 variant T335_20W/GpL16-k0 (antibody, human IgG1, kappa)
heavy: not shown
light: B1 light
notes: also called Ho Ab
B33: GpH7-A5/GpH7-B3 variant Q295_06M/GpL16-k0 (antibody, human IgG1, kappa)
heavy 1: not shown
heavy 2: not shown
light: B1 light
notes: also called He Ab
B34: GpH7-B3 variant T335_18N/GpL16-k0 (antibody, human IgG1, kappa)
heavy: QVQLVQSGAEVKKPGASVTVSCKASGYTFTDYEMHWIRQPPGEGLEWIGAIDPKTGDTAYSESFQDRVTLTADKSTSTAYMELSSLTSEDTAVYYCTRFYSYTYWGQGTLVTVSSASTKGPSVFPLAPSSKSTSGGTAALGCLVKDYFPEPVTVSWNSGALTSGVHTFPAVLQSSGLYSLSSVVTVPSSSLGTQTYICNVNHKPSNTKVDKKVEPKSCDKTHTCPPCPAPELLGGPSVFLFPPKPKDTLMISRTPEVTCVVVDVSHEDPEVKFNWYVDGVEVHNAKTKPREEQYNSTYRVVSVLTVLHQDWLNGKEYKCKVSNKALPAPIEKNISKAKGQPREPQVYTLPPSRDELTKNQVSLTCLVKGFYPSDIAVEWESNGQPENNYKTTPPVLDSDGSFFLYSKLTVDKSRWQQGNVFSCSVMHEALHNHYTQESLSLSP
light: B1 light
notes: also called Ho Ab
B35: GpH7-B3 variant V266_06M/GpL16-k0 (antibody, human IgG1, kappa)
heavy: not shown
light: B1 light
notes: also called Ho Ab
B36: GpH7-A5/GpH7-B3 variant P331_15Y/GpL16-k0 (antibody, human IgG1, kappa)
heavy 1: not shown
heavy 2: not shown
light: B1 light
notes: also called He Ab
B37: GpH7-A5/GpH7-B3 variant S239_10E/GpL16-k0 (antibody, human IgG1, kappa)
heavy 1: not shown
heavy 2: not shown
light: B1 light
notes: also called He Ab
B38: GpH7-B3 variant T335_19Q/GpL16-k0 (antibody, human IgG1, kappa)
heavy: not shown
light: B1 light
notes: also called Ho Ab
B39: GpH7-A5/GpH7-B3 variant P331_14T/GpL16-k0 (antibody, human IgG1, kappa)
heavy 1: not shown
heavy 2: not shown
light: B1 light
notes: also called He Ab
B40: GpH7-B3 variant Y296_14T/GpL16-k0 (antibody, human IgG1, kappa)
heavy: not shown
light: B1 light
notes: also called Ho Ab
B41: GpH7-A5/GpH7-B3 variant P331_09D/GpL16-k0 (antibody, human IgG1, kappa)
heavy 1: not shown
heavy 2: not shown
light: B1 light
notes: also called He Ab
B42: GpH7-B3 variant Y296_13S/GpL16-k0 (antibody, human IgG1, kappa)
heavy: not shown
light: B1 light
notes: also called Ho Ab
B43: GpH7-A5/GpH7-B3 variant P331_07I/GpL16-k0 (antibody, human IgG1, kappa)
heavy 1: not shown
heavy 2: not shown
light: B1 light
notes: also called He Ab
B44: GpH7-A5/GpH7-B3 variant P331_08L/GpL16-k0 (antibody, human IgG1, kappa)
heavy 1: not shown
heavy 2: not shown
light: B1 light
notes: also called He Ab

Molecular target: T1, FcγRIIa R (FcγRIIa, allotype with Arg at position 131), extracellular domain with C-terminal His tag (human, UniProt P12318 34-217)
T1 construct: extracellular domain; also called FcγRIIa R type; 2aR
T1 sequence (looked up): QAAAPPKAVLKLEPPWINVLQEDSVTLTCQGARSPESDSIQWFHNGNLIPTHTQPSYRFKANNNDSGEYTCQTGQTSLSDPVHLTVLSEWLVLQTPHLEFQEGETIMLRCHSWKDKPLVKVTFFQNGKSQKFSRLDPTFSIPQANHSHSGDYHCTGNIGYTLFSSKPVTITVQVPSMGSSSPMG
Assay: SPR (Biacore), antibody captured on antigen peptide chip, FcγR as analyte; relative binding

Binder	Ho/Con_2aR	He/Con_2aR
B1	102 % of GpH7-B3/GpL16-k0 (=100)	
B2		105 % of GpH7-A5/GpH7-B3/GpL16-k0 (=100)
B3		106 % of GpH7-A5/GpH7-B3/GpL16-k0 (=100)
B4	89.5 % of GpH7-B3/GpL16-k0 (=100)	
B5	104 % of GpH7-B3/GpL16-k0 (=100)	
B6		105 % of GpH7-A5/GpH7-B3/GpL16-k0 (=100)
B7	94 % of GpH7-B3/GpL16-k0 (=100)	
B8		122 % of GpH7-A5/GpH7-B3/GpL16-k0 (=100)
B9	90.2 % of GpH7-B3/GpL16-k0 (=100)	
B10	102 % of GpH7-B3/GpL16-k0 (=100)	
B11		102 % of GpH7-A5/GpH7-B3/GpL16-k0 (=100)
B12		106 % of GpH7-A5/GpH7-B3/GpL16-k0 (=100)
B13	84 % of GpH7-B3/GpL16-k0 (=100)	
B14	107 % of GpH7-B3/GpL16-k0 (=100)	
B15	106 % of GpH7-B3/GpL16-k0 (=100)	
B16	83.1 % of GpH7-B3/GpL16-k0 (=100)	
B17		105 % of GpH7-A5/GpH7-B3/GpL16-k0 (=100)
B18		114 % of GpH7-A5/GpH7-B3/GpL16-k0 (=100)
B19		113 % of GpH7-A5/GpH7-B3/GpL16-k0 (=100)
B20	102 % of GpH7-B3/GpL16-k0 (=100)	
B21	94.5 % of GpH7-B3/GpL16-k0 (=100)	
B22	109 % of GpH7-B3/GpL16-k0 (=100)	

Binder	Ho/Con_2aR	He/Con_2aR
B23		103 % of GpH7-A5/GpH7-B3/GpL16-k0 (=100)
B24	107 % of GpH7-B3/GpL16-k0 (=100)	
B25		102 % of GpH7-A5/GpH7-B3/GpL16-k0 (=100)
B26		101 % of GpH7-A5/GpH7-B3/GpL16-k0 (=100)
B27	93.7 % of GpH7-B3/GpL16-k0 (=100)	
B28	88.9 % of GpH7-B3/GpL16-k0 (=100)	
B29	87.6 % of GpH7-B3/GpL16-k0 (=100)	
B30	107 % of GpH7-B3/GpL16-k0 (=100)	
B31		110 % of GpH7-A5/GpH7-B3/GpL16-k0 (=100)
B32	101 % of GpH7-B3/GpL16-k0 (=100)	
B33		102 % of GpH7-A5/GpH7-B3/GpL16-k0 (=100)
B34	100 % of GpH7-B3/GpL16-k0 (=100)	
B35	146 % of GpH7-B3/GpL16-k0 (=100)	
B36		112 % of GpH7-A5/GpH7-B3/GpL16-k0 (=100)
B37		135 % of GpH7-A5/GpH7-B3/GpL16-k0 (=100)
B38	102 % of GpH7-B3/GpL16-k0 (=100)	
B39		104 % of GpH7-A5/GpH7-B3/GpL16-k0 (=100)
B40	90.3 % of GpH7-B3/GpL16-k0 (=100)	
B41		102 % of GpH7-A5/GpH7-B3/GpL16-k0 (=100)
B42	88.1 % of GpH7-B3/GpL16-k0 (=100)	
B43		110 % of GpH7-A5/GpH7-B3/GpL16-k0 (=100)
B44		102 % of GpH7-A5/GpH7-B3/GpL16-k0 (=100)

— patent US20150344570A1 (published 2015)
